In US20250177546A1 (SANYOU BIOPHARMACEUTICALS, published 2025):

Tests used:
[1] = target: T1, huROR1-His (human ROR1 ECD AA30-406 with C-terminal His tag, made in house) (human, UniProt Q01973 30-406); experiment: ELISA, huROR1-His coated at 2 µg/mL, goat anti-human Fc-HRP, OD450
T1 construct: range 30-406; Expressed in HEK293; also called antigen protein huROR1-His; not shown: C-terminal His tag
Description: (§1) 96-well ELISA plate was coated with 2 μg/mL huROR1-His (30 μL/well) at 4° C. overnight. The next day, the plate was washed three times with PBST and then blocked with 5% skim milk for 2 h. […] After washing with PBST for three times, the secondary antibody Goat-anti-human Fc-HRP (abcam, ab97225) was added and incubated for 1 h. After incubation, the plate was washed with PBST for 6 times and TMB (SurModics, TMBS-1000-01) was added for color development. According to the color development results, 2 M HCl was added to terminate the reaction, and the data were read at OD450 using a microplate reader (Molecular Devices, SpecterMax 190).

[2] = target: T2, MusROR1-His (mouse ROR1 ECD AA30-406 with C-terminal His tag) (mouse, UniProt Q9Z139 30-406); experiment: ELISA, MusROR1-His coated at 2 µg/mL, goat anti-human Fc-HRP, OD450
T2 construct: range 30-406; Expressed in HEK293; also called mouse ROR1 antigen protein; not shown: C-terminal His tag
T2 sequence (Q9Z139 30-406 limits assumed): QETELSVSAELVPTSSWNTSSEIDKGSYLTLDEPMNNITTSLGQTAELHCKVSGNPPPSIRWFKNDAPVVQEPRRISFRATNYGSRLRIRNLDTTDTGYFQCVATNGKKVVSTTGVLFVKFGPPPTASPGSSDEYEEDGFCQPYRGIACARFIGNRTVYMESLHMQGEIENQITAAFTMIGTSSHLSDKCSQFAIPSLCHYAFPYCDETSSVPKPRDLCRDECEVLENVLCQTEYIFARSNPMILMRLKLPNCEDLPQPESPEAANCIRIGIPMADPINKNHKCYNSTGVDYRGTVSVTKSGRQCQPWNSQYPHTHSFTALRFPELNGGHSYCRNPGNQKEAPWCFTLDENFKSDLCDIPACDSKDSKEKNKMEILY
Description: as §1, with “MusROR1-His” for “huROR1-His”

[3] = target: T1, huROR1-His (human ROR1 ECD AA30-406 …); experiment: Gator (BLI) Advanced Kinetics; antibody 30 nM, huROR1-His 480-7.5 nM
Description: First, Q buffer was prepared with PBS (10 mM pH7.4) (IgG-free, purchased from Jackson ImmunoResearch Lab)+0.02% Tween 20 (purchased from thermo)+0.2% BSA (purchased from source culture), and the stock solution of the test antibody was diluted with the prepared Q buffer to a working solution with a final concentration of 30 nM, the stock solution of the antigen protein huROR1-His was prepared with Q buffer into a working solution with multiple dilutions (480, 240, 120, 60, 30, 15, 7.5 nM), and detection and analysis was then performed with Gator instrument and its accompanying software, selecting the Advanced Kinetics experimental mode is used.

[4] = target: T3, human ROR1 on cells (full-length human ROR1 on huROR1-HEK293 cells; human ROR1 on A549 and HT-29 tumor cells) (human, UniProt Q01973 30-937); experiment: flow cytometry (FACS) on huROR1-HEK293 cells, anti-human IgG-Fc secondary antibody, MFI
T3 construct: whole, on cells; also called hROR1-HEK293T; A549 tumor cells
T3 sequence (Q01973 30-937): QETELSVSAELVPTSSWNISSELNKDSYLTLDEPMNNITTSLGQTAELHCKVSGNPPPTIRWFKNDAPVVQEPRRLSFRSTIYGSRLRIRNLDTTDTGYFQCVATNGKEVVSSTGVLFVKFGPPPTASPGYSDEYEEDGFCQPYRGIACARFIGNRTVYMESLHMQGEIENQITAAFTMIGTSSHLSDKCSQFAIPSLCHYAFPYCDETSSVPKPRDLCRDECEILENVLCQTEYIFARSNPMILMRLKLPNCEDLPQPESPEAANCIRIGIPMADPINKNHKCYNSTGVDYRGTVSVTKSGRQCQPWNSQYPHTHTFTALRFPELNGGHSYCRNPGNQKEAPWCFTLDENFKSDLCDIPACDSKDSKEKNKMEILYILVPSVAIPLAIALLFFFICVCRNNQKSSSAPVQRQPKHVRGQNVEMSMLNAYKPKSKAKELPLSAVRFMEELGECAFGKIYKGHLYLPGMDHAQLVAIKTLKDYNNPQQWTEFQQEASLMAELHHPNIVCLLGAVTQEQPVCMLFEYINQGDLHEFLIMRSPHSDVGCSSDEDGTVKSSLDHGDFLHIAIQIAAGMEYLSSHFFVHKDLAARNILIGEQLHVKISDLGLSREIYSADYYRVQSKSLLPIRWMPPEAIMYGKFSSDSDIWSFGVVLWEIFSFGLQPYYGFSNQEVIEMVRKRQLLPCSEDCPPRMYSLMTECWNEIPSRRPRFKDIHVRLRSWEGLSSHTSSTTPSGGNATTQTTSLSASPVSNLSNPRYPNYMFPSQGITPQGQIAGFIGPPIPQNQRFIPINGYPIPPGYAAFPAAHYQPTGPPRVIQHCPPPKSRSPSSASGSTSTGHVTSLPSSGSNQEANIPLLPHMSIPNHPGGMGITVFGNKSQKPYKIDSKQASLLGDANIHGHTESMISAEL
Description: (§2) In this example, the binding activity of the antibody was evaluated using two types of cells, huROR1-HEK293 cells over-expressing human ROR1 and A549 tumor cells.
(§3) The specific method was as follows: huROR1-HEK293 cells or A549 cells in the logarithmic growth phase were prepared to a single-cell suspension, the density was adjusted to 1×10⁶ cells/mL, then 100 μL/well cells were added to a 96-well round-bottom plate, centrifuged at 4° C., 300 g, and the supernatant was removed. […] After the incubation, the cell mixture was washed three times and then 100 μL of 1:300 diluted secondary antibody Goat F(ab′)₂ Anti-Human IgG-Fc (abcam, ab98596) was added. The mixture was incubated at 4° C. in the dark for 30 min. After washing three times, the cells were detected by flow cytometry (Beckman, CytoFLEX AOO-1-1102).

[5] = target: T4, huROR2-His (human ROR2 ECD AA34-403 with C-terminal His tag) (human, UniProt Q01974 34-403); experiment: ELISA, huROR2-His coated at 2 µg/mL, goat anti-human Fc-HRP, OD450
T4 construct: range 34-403; Expressed in HEK293; also called human ROR2 antigen protein; not shown: C-terminal His tag
T4 sequence (Q01974 34-403 limits assumed): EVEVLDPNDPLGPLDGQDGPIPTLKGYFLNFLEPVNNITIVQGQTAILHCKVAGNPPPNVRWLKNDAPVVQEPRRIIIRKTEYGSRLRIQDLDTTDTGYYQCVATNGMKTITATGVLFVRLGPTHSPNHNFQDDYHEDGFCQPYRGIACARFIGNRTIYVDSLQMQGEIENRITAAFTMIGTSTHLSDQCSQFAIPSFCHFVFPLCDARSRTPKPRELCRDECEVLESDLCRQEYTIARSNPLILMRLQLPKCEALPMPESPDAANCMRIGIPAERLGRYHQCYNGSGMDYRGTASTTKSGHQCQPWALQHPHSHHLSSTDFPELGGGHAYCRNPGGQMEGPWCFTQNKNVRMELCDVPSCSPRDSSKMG
Description: as §1, with “huROR2-His” for “huROR1-His”, “TMBS-1000-0)” for “TMBS-1000-01)”

[6] = target: T3, human ROR1 on cells (full-length human …); experiment: flow cytometry (FACS) on A549 tumor cells, anti-human IgG-Fc secondary antibody, MFI
Description: as §2, §3

T1 sequence (Q01973 30-406 limits assumed): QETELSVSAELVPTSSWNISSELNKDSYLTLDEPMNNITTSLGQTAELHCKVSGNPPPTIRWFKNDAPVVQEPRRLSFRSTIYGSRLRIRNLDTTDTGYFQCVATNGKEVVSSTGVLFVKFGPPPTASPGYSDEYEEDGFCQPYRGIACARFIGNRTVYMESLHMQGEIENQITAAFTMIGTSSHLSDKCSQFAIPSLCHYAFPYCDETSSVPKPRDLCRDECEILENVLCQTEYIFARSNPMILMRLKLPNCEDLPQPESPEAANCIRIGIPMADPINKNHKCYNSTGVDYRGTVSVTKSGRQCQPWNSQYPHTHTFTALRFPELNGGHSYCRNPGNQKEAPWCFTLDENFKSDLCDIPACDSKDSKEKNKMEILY

EC50 [1] [ng/mL] | binding result [2] | Kd [3] [nM] | koff [3] [s⁻¹] | kon [3] [M⁻¹ s⁻¹] | EC50 (read off the curve) [4] [µg/mL] | binding result [5] | EC50 (read off the curve) [6] [µg/mL] | EC50 (read off the curve) [2] [µg/mL] | Binder
2.03 | binds | 29.6 | 0.00325 | 110000 | ~0.2 | no binding (tested: 1 µg/mL) | ~0.03 | – | C42 (chimeric antibody) (antibody, human IgG1, kappa, V domains shown, ExpiCHO expression) VH: EVMLVESGGGLVKPGGSLKLSCAASGFTFSNYIMSWVRQTPEKRLEWVATINSGGTNTYYPDSVKGRFTISRDNAKNSLYLQMNSLRSEDTALYYCTRYNGNYVWFAYWGQGTLVTVSA VL: DIVLTQSPAIMSASPGEKVTMTCSASSSVSFIYWYQQKPGSSPRLLIYDTSNLASGVPVRFSGSGSGTSYSLTISRMEAEDAATYYCQQWSNYHFTFGSGTKLEIKR
5.75 | – | 1.25 | 0.000377 | 301000 | ~0.1 | no binding (tested: 1 µg/mL) | ~0.02 | ~0.04 | B32 (chimeric antibody) (antibody, human IgG1, kappa, V domains shown, ExpiCHO expression) VH: EVKLMESGGGLVKPGGSLKLSCAASGFAFSSYAMSWVRQTPDKRLEWVASINRDVTTYYPDSMKGRFTISRDNARNILYLQMSSLRSEDTAMYYCARGYYYGGGPYWHFDVWGAGTTVTVSS VL: DIQITQSPSSMYASLGERVTITCKASQDINSYLTWFQQKPGKSPKTLIYRANRLVDGVPSRFSGSGSGQDYSLTISSLEYEDMGIYYCLQFDEFPYTFGGGTKLEIKR
6.03 | no binding (tested: 1 µg/mL) | 2.47 | 0.000774 | 314000 | ~0.1 | no binding (tested: 1 µg/mL) | ~0.02 | – | C77 (chimeric antibody) (antibody, human IgG1, kappa, V domains shown, ExpiCHO expression) VH: EVKLVESGGGLVKPGGSLKLSCAASGFSFSNYAMSWVRQTPEKRLEWVASINSGVTTYYPDSVKGRFTVSRDNARNILYLHMTGLRSEDTAIYYCSRGYYYGGSPYWHFDVWGAGTTVTVSS VL: DIQMTQSPSSMHASLGERVTITCKASQDINNYVSWFQQKPGKSPKTLIYRANRLVDGVPSRFSGSGSGQDYSFTISSLEYEDMGIYYCLQFDEFPYTFGGGTKLEIKR
5.52 | no binding (tested: 1 µg/mL) | 4.43 | 0.00135 | 304000 | ~0.1 | no binding (tested: 1 µg/mL) | ~0.01 | – | B39 (chimeric antibody) (antibody, human IgG1, kappa, V domains shown, ExpiCHO expression) VH: EVKLVESGGGLVKPGGSLKLSCAASGFTFSTYAMSWVRQTPEKRLEWVASISTGASTYYPDSVKGRFTISRDNARNILYLQMSSLRSEDTAMYYCAREETTTAALYYAMDYWGQGTSVTVSS VL: DIKITQSPSSMYASLGERVTITCKASQDINNYLSWFQQKPGKSPKTLIYRANRLVDGVPSRFSGSGSGQDYSLTISSLEYEDMGIYYCLQFDEFPYTFGGGTKLEIKR
5.13 | no binding (tested: 1 µg/mL) | 1.44 | 0.000464 | 323000 | ~0.2 | no binding (tested: 1 µg/mL) | ~0.01 | – | B74 (chimeric antibody) (antibody, human IgG1, kappa, V domains shown, ExpiCHO expression) VH: EVMLVESGGNLVKPGGSLKLSCAASGFTFSIYAMSWVRQTPEKRLEWVASISGGGTAYYPDSVKGRFTISRDNARNILYLQMSSLRSEDTAIYYCARGYYYGGSPYWHFDVWGAGTTVTVSS VL: DIKMTQSPSSMYASLGERVTITCKASQDINSYLSWFQQKPGKSPKTLIYRANRLVDGVPSRFSGSGSGQDYSLTISSLEYEDIGIYYCLQIDEFPYTFGGGTKLEIKR
7.7 | no binding (tested: 1 µg/mL) | 1.54 | 0.00054 | 351000 | ~0.08 | no binding (tested: 1 µg/mL) | ~0.01 | – | M71 (chimeric antibody) (antibody, human IgG1, kappa, V domains shown, ExpiCHO expression) VH: EVMLVESGGGLVKPGGSLKLSCAASGFTFSRYAMSWVRQTPEKRLEWVASINRGGTTYYPDSVKGRFTISRDNARDILYLQMSSLRSEDTAIYYCARDYYYGSSLYNGMDFWGQGTSVIVSS VL: DIQMTQSPSSMYASLGERVTITCKASQDINSYLSWFQQKPGKSPKTLIYRANRLVDGVPSRFSGSGSGQDYSLTISSLESEDMGIYYCLQFDEFPYTFGGGTKLEIKR
6.28 | no binding (tested: 1 µg/mL) | 2.52 | 0.000609 | 241000 | ~0.2 | no binding (tested: 1 µg/mL) | ~0.04 | – | B34 (chimeric antibody) (antibody, human IgG1, kappa, V domains shown, ExpiCHO expression) VH: EVQLVESGGGLVQPKGSLKLSCAASGFTFSRYAMSWVRQTPEKRLEWVASISTGGSPYYPDSVKGRFTISRDNARNILYLQMSSLKSEDTAMYYCARGYYYNSSPHWYFAVWGAGTSVTVSS VL: DIQMTQSPSSLSASLGERVTITCKASQDINSYLSWFQQKPGKSPKTLIYRANRLVDGVPSRFSGSGSGQDYSLTISSLEYEDMGIYYCLQYDEFPYTFGGGTKLEIKR
3.71 | – | 1.34 | 0.000422 | 314000 | ~0.1 | no binding (tested: 1 µg/mL) | ~0.02 | ~0.03 | C38 (chimeric antibody) (antibody, human IgG1, kappa, V domains shown, ExpiCHO expression) VH: EVMLVESGGGLVRPGGSLKLSCAASGFTFSSYAMSWVRQTPDKRLEWVASINRDVTTYYPDSVKGRFTISRDNARNILYLQMSSLRSEDTAMYYCARDYYYGSSLYYGMDYWGQGTSVTVSS VL: DIQMTQSPSSMHASLGERVTITCKASQDINNYVSWFQQKPGKSPKTLIYRANRLVDGVPSRFSGSGSGQDYSFTISSLEYEDMGIYYCLQFDEFPYTFGGGTKLEIKR
2.12 | no binding (tested: 1 µg/mL) | 1.86 | 0.000614 | 330000 | ~0.1 | no binding (tested: 1 µg/mL) | ~0.02 | – | M78 (chimeric antibody) (antibody, human IgG1, kappa, V domains shown, ExpiCHO expression) VH: EVMLVESGGGLVRPGGSLKLSCAASGFTFSSYAMSWVRQSPEKRLEWVASINRGGTTYYPDSVKGRFTISRDNARDILYLQMSSLRSEDTAIYYCARDYYYGSNLYNGMDYWGQGTSVIVSS VL: DIKITQSPSSMYASLGERVTITCKASQDINSYLSWFQQKPGKSPKTLIYRANRLVDGVPSRFSGSGSGQDYSLTISSLEYEDMGIYYCLQFDEFPYTFGGGTKLEIKR
